Source: the DeepSol protein solubility set

Test: soluble on expression in E. coli; label from the status in PepcDB or PDB records

| Sequence | soluble on expression in E. coli |
| --- | --- |
| MSLKVALLQIDTVVGDIVGNAARIADAVREAASLGARLCVTPELALCGYPPRDLLLQDDFVPACRKALEALAQQLRDLPPVLVGAPVPNPSPVGNPIHNCAVLLREGKVTVATRKVLLPNYDVFDERRYFESGVGCGVVTIDGWRFGVTICEDVWNDKTFWQEHRHYENDPVADLMAGGADAILNLSASPFTLGKQAVRERMLSRVAFRYRVSVLYANQVGGNDDLVFAGKSIAFDATGTLIARGRSFAEDIVMVDVAQATGTITAEPTSDEEQVWKALVLGTRDYARKCGFDGAVLGLSGGIDSALVAAVAAEALGPDKVLGVLMPSPHSSEGSVTDALALASSLGIATCTIPIGDLMHGFEAALAQAFAGREADVTEENIQSRIRGNLLMALSNKQRRLLLTTGNKSELAVGYCTIYGDMAGGLAVIADLPKTLVYRVAHWLNERDTSHGHEGREARETIPSAILTKEPSAELRPGQRDSDSLPPYDVLDGILERLVELRRSAADIVAEGYDVETVRKVLRLVCNAEFKRRQAPPGLKVTDRAFGTGWRMPVAARVNLGEGHHHHHH | soluble |
| MVRRRTASPSPSAPVRSAPRPAAQSSFAAPPPRPAAAAPAYHPPAAPTPMGAPMGAPSQGPGLMKQMAATAGGVAIGSAVGHAVGGMFTGGGSSHAEQAPAAAAAPAGAPQASGYSQPCEFEWRQFVDCAQNQSDVSLCNGFNDIFKQCKARYA | not soluble |
| MLEILGKASSINVRKVLWTCAELDLPYRREDWGSGFRDTHAAEFLALNPNAMVPVLRDGELVLWESNSIIRYLANRYAGERLYPQQAAPRARVDQWLDWQASDLNRSWSYAFMSLVRQSPAHRDAAQVEASLRGWTGFMEILEGQLLRTGAYVAGETFSLADIAIGLSVNRWYETPFEHPSLPAVRAYYERLGAR | not soluble |
| GPGSMPTLAVAKDYICRLIGKSYTDEEFSDLCFQFGLELDDITSEKEMFMREQGKSAKANVAPAEAPAHLSEEKLYKIDTPANRHDLLTAEGMACALRVFMGTMPLPNYRVLNRASPLYRMSVEKSVKNVRDYVVCAVLRNIHFNERSYNSFIDYQERLHAGLARRRTLASVGTHDLDKVNTTDFIFACRPRETVRFVPLRQTRELNCAGDGLAQYYAEDRHIGKYVPLISSFPTYPVVYDGTGQNVLSLPPIINSHYSAISVDTRNIFIECTAPDHYKAQVLVNQLVCAFSVYCEDPFTVEAVQVNYEEPTPDGTRSLVTPTMETKEMTMNIERLNSIIGIKMKSGAECAQLLKMMMYTIKETTESEVTVTVPPMRTDVIGVADVMEDVAIAYGYDNITYVECKTHGPVTQTPLSKVAQLLRTEMACAGYTELLTLSLCSRADAFESLGRVDNDVAAHIANPQTMEFQVCRPSLLPGILKTLATNKSKPLPQRFFECADVVLLDNERNFPPVLELKTDYASCGARNQRHLAAAHCNGSSSGFESIHGLTELALLKLGVPSKAAIADDYEGDYYTLEKGEDGAFFPGRAMDIILHRAGQAVRIGHLGVIHPNTLKAYDIPSPCSYMELNIQFLCVPL | not soluble |
| MLLSPEQFSRLSEYAAYSRRKLKDMLSDFQQDGKFYSYLSVDGQTINIDGFRAFLIDYFGADLPSDLVDQLFLSFSKPPIKERRTSLFEDAISTVRAKFSESLSGRMAGLNIAGGSGQQTDRSQSSEPQALVCIPEDDVMGPRVANNDSQEPRIPLKPLICTLSLLEADTPENKLDVVFHVYDSDGNGFLDKSEIDGIIEQMMNVARYQQWDTIELEQVIRQMMVDIDYDNDGIVSFDEWRRGGLTNIPLLVLLGFDTEMKEDGSHVWRLRHFTKPTYCNACCSILVGWGGKQGLSCSLCKYTVHERCVRSAATNCIRTYSSRQQDKLYHHWQDANATAKCVKCKATVGVFQGKGCRWCHNYVHHRCMSALAQECDLGALVHHILPPTHIFPAFLERKTSTSLKNHNFSSHSASLLQAVSPSNDCRPLLVLVNPKSGGKQGVKILQKFEYLLNPRQVYDLSKTGPEPGLQLFSTLKNCNILVCGGDGTIGWVLESMDKMTFPHGRPPVAVLPLGTGNDLARCLRWGGGYENENLHKILEQIEKSSLIDMDRWQIKIEITENKSARRASEKGDTPPYSIINNYFSIGVDASIAHRFHVMREKFPEKFNSRMRNKLWYFELGTSETLSSSCKNLHEQIDILCDGESIDLGQDASLEGIALLNIPSIYGGSNLWGRSRKSKGRMPGLFPMKNAEKMQLQTRVQDIGDGLIELVGLESAMQMGQIKAGVRGARRLSQCSTVVIQTHKSFPMQIDGEPWMQPPCIIQITHKNQAKMLVGEFRHILELSINFFLFTAAAPRKRSSWMLLKRQSTNDDN | not soluble |
| MSLKPESPNQDDFIIITMENLALYAIFDGHGPYGHDVSNYVQKELPYMIIKNENFLKNPKEVFTKAFLNIHENIERTTNAYLDSFTNKNSDSTMSGTTATIIVHLFKEKKLYVAYVGDSRAVLGKRKNGSKQLSAVELTKDHKPNCAAEKKRILSSGGQVMKLEGDIPYRVFIKNKFYPGLAMSRAIGDTIGHQIGIIAEPDFIEVNINEDEDILVLICSDGVWEFISSEEAVNLIYEFGYNNVQDAVENLARESWDRWLNEEENIVDDITIQAIYLSEKSKYLKEGHHHHHH | not soluble |
| MKTPRLPIAIQQAVMRRLRENLAQANLKLDRHYPEPKLVYTQRGTSAGTAWLESYEIRLNPVLLLENIDTFIAEVVPHELTHLLVWKHFGRKAPHGKEWKWMMESVLGVPARRTHQFALQSVRRNTFPYHCQCQQHQLTVRRHNRVVRGEAVYRCVHCGEPLVAGLEHHHHHH | not soluble |
| MQDLEAELERARELDVATLADAIETIGFECTRCGACCKSEADDPHTATVFPDEVRDVQAAAGAETDRDWRDVARPMPYGLDEDGAGETFEWALQADSCGDCTFYREDDDGTGACSVHGSRPLICQTYPFSVALGGTSQPMGEAVDEAGMVRAHECEGLGRDISRADAEELAGALKARAIRELEEAIDVREAYAPANPEPGATVVHDSEGAKRPDGSAYPNAAALEHHHHHH | not soluble |
| MSQQVIIFDTTLRDGEQALQASLSVKEKLQIALALERMGVDVMEVGFPVSSPGDFESVQTIARQVKNSRVCALARCVEKDIDVAAESLKVAEAFRIHTFIATSPMHIATKLRSTLDEVIERAIYMVKRARNYTDDVEFSCEDAGRTPIADLARVVEAAINAGATTINIPDTVGYTMPFEFAGIISGLYERVPNIDKAIISVHTHDDLGLAVGNSLAAVHAGARQVEGAMNGIGERAGNCSLEEVIMAIKVRKDILNVHTAINHQEIWRTSQLVSQICNMPIPANKAIVGSGAFAHSSGIHQDGVLKNRENYEIMTPESIGLNQIQLNLTSRSGRAAVKHRMDEMGYKESEYNLDNLYDAFLKLADKKGQVFDYDLEALAFIGKQQEEPEHFRLDYFSVQSGSNDIATAAVKLACGEEVKAEAANGNGPVDAVYQAINRITDYNVELVKYSLTAKGHGKDALGQVDIVANYNGRRFHGVGLATDIVESSAKAMVHVLNNIWRATEVEKELQRKAQHNENNKETV | not soluble |
| MGSDKIHHHHHHMKIDLIISADDIKEEKVKNKTAVVIDMLRATSVITTALNNGCKRVVPVLTVEEALKKVKEYGKDAILGGERKGLKIEGFDFSNSPMEYTEDVVKGKTLIMTTTNGTRAIKGSETARDILIGSVLNGEAVAEKIVELNNDVVIVNAGTYGEFSIDDFICSGYIINCVMDRMKKLELTDAATTAQYVYKTNEDIKGFVKYAKHYKRIMELGLKKDFEYCCKKDIVKLVPQYTNGEIL | soluble |
| MPMNRLISHIERSISIHKCVVVPSLGGFVAELLPACYDRDDNLIYPPKEELRFNAALSLRDGILEDSYARAYGISHRRARVMLDDDVRTLRAELVRAGRVSLEKMGELTLNPEGQISYSHRSEAEEGSGFSYGLAPCSLPRLAESFDEARPFAEREKEALSVGRSDYFYLKIHKRTGMMAAAAVMSAVLLVVPWGQISSSDKFAASFVPTELTAKSVWKDTEARPVQVVTAKPASVATTADSQPIEATASKPAESPNQLSTDVAEGGVPVMHEPVGSKCYYVVVGTFDTKKKAQEFYRMSIDKAIMPNAVVLLSSNKARIYSDRFATADEAQTYIRSMKDKHRLFADAWVYAGR | not soluble |
| MGHHHHHHSHDQLDRAGVAAVALSGGEPTIHPHFLRIVKELSSRGIHTSVATNGWTFADKEKLEEAVKAGLKYVEISVDSAKPEKHDEFRGIPGAWERAIKALENAVEIGVSHGMAVIMDKETYQEMDDILDLAESIGVKRVIFFNLVPTGRAEDMVKVDLTPEEREEFLKELYHQMKKRKLEILTTAPQYARVTLIESQGKNVSPAHFYVGQNTAVKTLAEFIGGCGAGRIYAGIEPDGTVVPCVFL | not soluble |
| MQVIAFIAPLIDKGMDPLTGVPIRQEVPRLMERTFQENQAETYVLFLINLDRFKLVNDSLGEGYGDQVLQTLVRRLLWQLPNQQWIARVSGDEFIACAAIKGELPKKETLATYISSIIQQPFQVDEVQFTMTASIGAAVYPMDGKSVEMIWNSLERALRHAKARGGNCVSWFCQELKDEWIHPFRLENDLRRAVENQELEHHHHHH | not soluble |
| MTELPLQFAEPDDDLERVRATLYSLDPDGDRTAGVLRDTLDQLYDGQRTGRWNFDQLHKTEKTHMGTLVEINLHREFQFGDGFETDYEIAGVQVDCKFSMSQGAWMLPPESIGHICLVIWASDQQCAWTAGLVKVIPQFLGTANRDLKRRLTPEGRAQVVKLWPDHGKLQENLLLHIPGDVRDQIFSAKSSRGNQHGQARVNELFRRVHGRLIGRAVIATVAQQDDFMKRVRGSGGARSILRPEGIIILGHQDNDPKVANDLGLPVPRKGQVVAARVVPADEGDQRQTAEIQGRRWAVAVPGDPIVEAPVVPRKSAE | soluble |
| SSRGSGILPDEFMFAEFKRQCLSTENWVNKYDKNDMEVWVEQAPLSASINNKGNYSKVHKIRCQINIKDVSAATMYDVLHDGQYRKTWDPTMLESFDIARLAHNADVGYYSWICPKPLKNRDVVTLRSWQASENEYVIINFSVKHPKYPPRKDLVRAVSLMTGYLIKPTGPQSCTFTYLSQADPKGSLPKWVVNKASQVLAPKVLRSAHKAGQNYPAWKAANSPDHKPWLYPIQSELAMMDPAELSIQRGDSLENVDESSTRDAQENEDSS | soluble |
| METLTLETPEARAETRTVLHVGCGAANPAKLPGDVFPAGDWRELRLDIDPGVAPDILASITGMPMVADGSVDAVWSSHNLEHLRPHEVPLALAEFHRVLRPGGFLLATLPDLQAVALLVAQGLLEEPAYVSALGPIAPLDILYGFRPAIAEGNDFMAHRTGFTAASLARHLGAAGFAEITVQTDGRFALWARAVRPA | not soluble |
| MSLFCLPLEMRNHWHFFSLFTNLPRKSKWHRASEFFFPLLMSEIEDFR | soluble |
| MGSDKIHHHHHHMYKVIIIDDEKAAIETLRRDLEVQTDLEIKGTAGNGAKGKKLIMDIHPDLLFLDIELPDIQGIRLLSEIREQVLWDMKVVFYTAYDKYLLQALRESAFDYLLKPYDIEELNLIIERYRKTMASARPLPSFASAVGTLMPGRDLFMISTVTGFRFLRLEEIGYFEYLKDKRLWQVELFNQTKLCLKKNTTAGDIIGYSDAFVQISQSAIININYLAMIKSKQCLLYPPFSDKEDLIISRGFLKELQERFCII | not soluble |
| MTAHPQEDHYKYKKVISIGVVSELTGLSQRQIRYYEERKLVFPDRSRGIRKYSFADVEQLMKIANQREEGVSTWEIRQEMTKELRERMLKGQMNAHFRRRS | not soluble |
| MASTSKPAASTTAIKKYYFYVLLCADQTLYGGFTDNLQRRLATHNAGKGAKYTRVRSRRPLQLIYHETFTDKSSALKAEYAFKHQSRAAKLKYLSAHDVKILEHHHHHH | not soluble |
